# B1: cofilin-M3 (natural protein)
# chain: MSFSGVKVSPECLEAFQELKLGKSLRYVVFKMNDTKTEIVVEKKSTDKDFDTFLGDLPEKDCRYAIYDFEFNLGEGVRNKIIFISWSPDVAPIKSKMVYSSSKDTLRRAFTGIGTDIQATDFSEVAYETVLAAVTRK
# Key:
# [1] = target: pyrene-labeled ADP-actin filaments (chicken breast muscle actin) (chicken, UniProt P68139 1-377, pyrene (pyrene iodoacetamide) on cysteine-374); experiment: other fluorescence titration
# [2] = target: Mg-ATP-actin monomer (chicken breast muscle actin) (chicken, UniProt P68139 1-377); experiment: inhibition of nucleotide exchange
binder,measurement,setting,value
B1,Ka of the cooperative model (Kd = 1/(ω*Ka)),[1],0.08 µM⁻¹
same,Kd,[1],890 nM
same,Kd,[2],170 nM

# From article PMC3206353 (The Journal of Cell Biology, 2011)
